Measured values: the supplement of paper PMC9112550, “Optimization of the antimicrobial peptide Bac7 by deep mutational scanning” (BMC Biology, 2022)

Test system: Escherichia coli TOP10
Test: shrunken log2 fold change of peptide-encoding DNA abundance (4.5 h post-induction vs induction); higher = less antimicrobial activity (less host growth inhibition)
Conditions: time post-induction: 4.5 h; library: site-saturation at positions 5, 18, 19, 20
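Note: peptides expressed intracellularly from a pBAD plasmid library in pooled LB shake-flask culture, induced with 0.3% L-arabinose, DNA abundance read by NGS, three biological replicates, DESeq2 with apeglm shrinkage.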

## RRIRTRPPRLPRPRPRPECTPRP
  shrunken log2 fold change: 0.0491

## RRIRTRPPRLPRPRPRPEEMPRP
  shrunken log2 fold change: 0.133

## RRIRTRPPRLPRPRPRPEFIPRP
  shrunken log2 fold change: 0.0102

## RRIRTRPPRLPRPRPRPEINPRP
  shrunken log2 fold change: -0.106

## RRIRTRPPRLPRPRPRPELMPRP
  shrunken log2 fold change: 0.0498

## RRIRTRPPRLPRPRPRPEPWPRP
  shrunken log2 fold change: 0.291

## RRIRTRPPRLPRPRPRPERFPRP
  shrunken log2 fold change: 0.0107

## RRIRTRPPRLPRPRPRPERSPRP
  shrunken log2 fold change: 0.104

## RRIRTRPPRLPRPRPRPESKPRP
  shrunken log2 fold change: 0.214

## RRIRTRPPRLPRPRPRPEVHPRP
  shrunken log2 fold change: 0.00869

## RRIRTRPPRLPRPRPRPEWTPRP
  shrunken log2 fold change: 0.188

## RRIRTRPPRLPRPRPRPEYFPRP
  shrunken log2 fold change: -0.186

## RRIRTRPPRLPRPRPRPFCRPRP
  shrunken log2 fold change: -0.0976

## RRIRTRPPRLPRPRPRPFGMPRP
  shrunken log2 fold change: 0.00903

## RRIRTRPPRLPRPRPRPFGYPRP
  shrunken log2 fold change: 0.0679

## RRIRTRPPRLPRPRPRPFHHPRP
  shrunken log2 fold change: -0.775

## RRIRTRPPRLPRPRPRPFHIPRP
  shrunken log2 fold change: 0.0392

## RRIRTRPPRLPRPRPRPFHYPRP
  shrunken log2 fold change: -0.0376

## RRIRTRPPRLPRPRPRPFKFPRP
  shrunken log2 fold change: -0.0637

## RRIRTRPPRLPRPRPRPFLSPRP
  shrunken log2 fold change: -0.195

## RRIRTRPPRLPRPRPRPFMLPRP
  shrunken log2 fold change: -0.706

## RRIRTRPPRLPRPRPRPFPIPRP
  shrunken log2 fold change: -1.16

## RRIRTRPPRLPRPRPRPFPSPRP
  shrunken log2 fold change: 0.0745

## RRIRTRPPRLPRPRPRPFQGPRP
  shrunken log2 fold change: -0.00192

## RRIRTRPPRLPRPRPRPFQSPRP
  shrunken log2 fold change: 0.00942

## RRIRTRPPRLPRPRPRPFQWPRP
  shrunken log2 fold change: -0.0875

## RRIRTRPPRLPRPRPRPFRMPRP
  shrunken log2 fold change: 0.0244

## RRIRTRPPRLPRPRPRPFSFPRP
  shrunken log2 fold change: -0.341

## RRIRTRPPRLPRPRPRPFSIPRP
  shrunken log2 fold change: -0.284

## RRIRTRPPRLPRPRPRPFSMPRP
  shrunken log2 fold change: -0.0868

## RRIRTRPPRLPRPRPRPFSRPRP
  shrunken log2 fold change: 0.0136

## RRIRTRPPRLPRPRPRPFSWPRP
  shrunken log2 fold change: -0.294

## RRIRTRPPRLPRPRPRPFVQPRP
  shrunken log2 fold change: -0.177

## RRIRTRPPRLPRPRPRPFVRPRP
  shrunken log2 fold change: -1.25

## RRIRTRPPRLPRPRPRPFYAPRP
  shrunken log2 fold change: -0.301

## RRIRTRPPRLPRPRPRPFYNPRP
  shrunken log2 fold change: -0.755

## RRIRTRPPRLPRPRPRPGAFPRP
  shrunken log2 fold change: 2.41

## RRIRTRPPRLPRPRPRPGAHPRP
  shrunken log2 fold change: 0.0457

## RRIRTRPPRLPRPRPRPGARPRP
  shrunken log2 fold change: 0.212

## RRIRTRPPRLPRPRPRPGCDPRP
  shrunken log2 fold change: 0.256

## RRIRTRPPRLPRPRPRPGCKPRP
  shrunken log2 fold change: -0.161

## RRIRTRPPRLPRPRPRPGDGPRP
  shrunken log2 fold change: 0.393

## RRIRTRPPRLPRPRPRPGDTPRP
  shrunken log2 fold change: -0.0833

## RRIRTRPPRLPRPRPRPGEDPRP
  shrunken log2 fold change: 0.109

## RRIRTRPPRLPRPRPRPGEWPRP
  shrunken log2 fold change: 0.0179

## RRIRTRPPRLPRPRPRPGFKPRP
  shrunken log2 fold change: -0.0634

## RRIRTRPPRLPRPRPRPGFNPRP
  shrunken log2 fold change: -0.234

## RRIRTRPPRLPRPRPRPGFTPRP
  shrunken log2 fold change: -0.0298

## RRIRTRPPRLPRPRPRPGHNPRP
  shrunken log2 fold change: -0.184

## RRIRTRPPRLPRPRPRPGIDPRP
  shrunken log2 fold change: -0.0352

## RRIRTRPPRLPRPRPRPGILPRP
  shrunken log2 fold change: -0.0375

## RRIRTRPPRLPRPRPRPGKVPRP
  shrunken log2 fold change: 0.145

## RRIRTRPPRLPRPRPRPGLAPRP
  shrunken log2 fold change: 0.308

## RRIRTRPPRLPRPRPRPGLLPRP
  shrunken log2 fold change: 0.0639

## RRIRTRPPRLPRPRPRPGLSPRP
  shrunken log2 fold change: 0.0345

## RRIRTRPPRLPRPRPRPGNNPRP
  shrunken log2 fold change: -0.14

## RRIRTRPPRLPRPRPRPGPQPRP
  shrunken log2 fold change: 0.0198

## RRIRTRPPRLPRPRPRPGPYPRP
  shrunken log2 fold change: -0.159

## RRIRTRPPRLPRPRPRPGQRPRP
  shrunken log2 fold change: 0.118

## RRIRTRPPRLPRPRPRPGSYPRP
  shrunken log2 fold change: -0.0475

## RRIRTRPPRLPRPRPRPGTMPRP
  shrunken log2 fold change: -0.254

## RRIRTRPPRLPRPRPRPGTNPRP
  shrunken log2 fold change: -0.0901

## RRIRTRPPRLPRPRPRPGTPPRP
  shrunken log2 fold change: 0.0833

## RRIRTRPPRLPRPRPRPGVFPRP
  shrunken log2 fold change: -0.0409

## RRIRTRPPRLPRPRPRPGWGPRP
  shrunken log2 fold change: 0.343

## RRIRTRPPRLPRPRPRPGWMPRP
  shrunken log2 fold change: -0.182

## RRIRTRPPRLPRPRPRPGWTPRP
  shrunken log2 fold change: 0.24

## RRIRTRPPRLPRPRPRPGWYPRP
  shrunken log2 fold change: -0.23

## RRIRTRPPRLPRPRPRPGYDPRP
  shrunken log2 fold change: -0.697

## RRIRTRPPRLPRPRPRPGYIPRP
  shrunken log2 fold change: -0.288

## RRIRTRPPRLPRPRPRPGYKPRP
  shrunken log2 fold change: -0.275

## RRIRTRPPRLPRPRPRPHAGPRP
  shrunken log2 fold change: -0.0835

## RRIRTRPPRLPRPRPRPHCEPRP
  shrunken log2 fold change: 0.023

## RRIRTRPPRLPRPRPRPHCGPRP
  shrunken log2 fold change: -0.0402

## RRIRTRPPRLPRPRPRPHCKPRP
  shrunken log2 fold change: -0.222

## RRIRTRPPRLPRPRPRPHCMPRP
  shrunken log2 fold change: -0.153

## RRIRTRPPRLPRPRPRPHCPPRP
  shrunken log2 fold change: -0.605

## RRIRTRPPRLPRPRPRPHCRPRP
  shrunken log2 fold change: -0.0822

## RRIRTRPPRLPRPRPRPHDVPRP
  shrunken log2 fold change: 0.00489

## RRIRTRPPRLPRPRPRPHEDPRP
  shrunken log2 fold change: -0.183

## RRIRTRPPRLPRPRPRPHFSPRP
  shrunken log2 fold change: 0.0329

## RRIRTRPPRLPRPRPRPHFTPRP
  shrunken log2 fold change: -0.149

## RRIRTRPPRLPRPRPRPHGNPRP
  shrunken log2 fold change: -0.718

## RRIRTRPPRLPRPRPRPHGVPRP
  shrunken log2 fold change: -0.00162

## RRIRTRPPRLPRPRPRPHGWPRP
  shrunken log2 fold change: -0.0327

## RRIRTRPPRLPRPRPRPHIGPRP
  shrunken log2 fold change: -0.156

## RRIRTRPPRLPRPRPRPHIIPRP
  shrunken log2 fold change: -0.0938

## RRIRTRPPRLPRPRPRPHILPRP
  shrunken log2 fold change: -0.00363

## RRIRTRPPRLPRPRPRPHIQPRP
  shrunken log2 fold change: -0.0986

## RRIRTRPPRLPRPRPRPHKIPRP
  shrunken log2 fold change: -0.587

## RRIRTRPPRLPRPRPRPHKPPRP
  shrunken log2 fold change: -0.0565

## RRIRTRPPRLPRPRPRPHKWPRP
  shrunken log2 fold change: -0.029

## RRIRTRPPRLPRPRPRPHLVPRP
  shrunken log2 fold change: 0.0214

## RRIRTRPPRLPRPRPRPHMFPRP
  shrunken log2 fold change: -0.0142

## RRIRTRPPRLPRPRPRPHMLPRP
  shrunken log2 fold change: -0.389

## RRIRTRPPRLPRPRPRPHMYPRP
  shrunken log2 fold change: -0.275

## RRIRTRPPRLPRPRPRPHPCPRP
  shrunken log2 fold change: -0.339

## RRIRTRPPRLPRPRPRPHPDPRP
  shrunken log2 fold change: -0.00834

## RRIRTRPPRLPRPRPRPHPNPRP
  shrunken log2 fold change: 0.0697

## RRIRTRPPRLPRPRPRPHQRPRP
  shrunken log2 fold change: -0.0533

## RRIRTRPPRLPRPRPRPHTDPRP
  shrunken log2 fold change: -0.401

## RRIRTRPPRLPRPRPRPHTGPRP
  shrunken log2 fold change: -0.34

## RRIRTRPPRLPRPRPRPHVYPRP
  shrunken log2 fold change: -0.496

## RRIRTRPPRLPRPRPRPHWEPRP
  shrunken log2 fold change: -0.171

## RRIRTRPPRLPRPRPRPHWTPRP
  shrunken log2 fold change: -0.0902

## RRIRTRPPRLPRPRPRPHWYPRP
  shrunken log2 fold change: -0.135

## RRIRTRPPRLPRPRPRPICMPRP
  shrunken log2 fold change: -0.348

## RRIRTRPPRLPRPRPRPIDHPRP
  shrunken log2 fold change: -0.263

## RRIRTRPPRLPRPRPRPIEAPRP
  shrunken log2 fold change: -0.199

## RRIRTRPPRLPRPRPRPIEDPRP
  shrunken log2 fold change: 0.0177

## RRIRTRPPRLPRPRPRPIEGPRP
  shrunken log2 fold change: -0.0197

## RRIRTRPPRLPRPRPRPIFGPRP
  shrunken log2 fold change: -0.0261

## RRIRTRPPRLPRPRPRPIFNPRP
  shrunken log2 fold change: -0.608

## RRIRTRPPRLPRPRPRPIFSPRP
  shrunken log2 fold change: -0.393

## RRIRTRPPRLPRPRPRPIFVPRP
  shrunken log2 fold change: 0.144

## RRIRTRPPRLPRPRPRPIHNPRP
  shrunken log2 fold change: -0.714

## RRIRTRPPRLPRPRPRPIIKPRP
  shrunken log2 fold change: -0.67

## RRIRTRPPRLPRPRPRPIKCPRP
  shrunken log2 fold change: -0.234

## RRIRTRPPRLPRPRPRPILSPRP
  shrunken log2 fold change: -0.0676

## RRIRTRPPRLPRPRPRPIMEPRP
  shrunken log2 fold change: -0.409

## RRIRTRPPRLPRPRPRPIMGPRP
  shrunken log2 fold change: -0.0135

## RRIRTRPPRLPRPRPRPIMSPRP
  shrunken log2 fold change: -0.152

## RRIRTRPPRLPRPRPRPIPWPRP
  shrunken log2 fold change: -0.0529

## RRIRTRPPRLPRPRPRPIQIPRP
  shrunken log2 fold change: 0.0193

## RRIRTRPPRLPRPRPRPISCPRP
  shrunken log2 fold change: 0.0135

## RRIRTRPPRLPRPRPRPISTPRP
  shrunken log2 fold change: -0.504

## RRIRTRPPRLPRPRPRPITYPRP
  shrunken log2 fold change: -0.0511

## RRIRTRPPRLPRPRPRPIVMPRP
  shrunken log2 fold change: -0.114

## RRIRTRPPRLPRPRPRPIWRPRP
  shrunken log2 fold change: -0.111

## RRIRTRPPRLPRPRPRPIWWPRP
  shrunken log2 fold change: 0.261

## RRIRTRPPRLPRPRPRPIYSPRP
  shrunken log2 fold change: -0.571

## RRIRTRPPRLPRPRPRPKAWPRP
  shrunken log2 fold change: 0.255

## RRIRTRPPRLPRPRPRPKCEPRP
  shrunken log2 fold change: 0.118

## RRIRTRPPRLPRPRPRPKCTPRP
  shrunken log2 fold change: -0.0569

## RRIRTRPPRLPRPRPRPKENPRP
  shrunken log2 fold change: 0.15

## RRIRTRPPRLPRPRPRPKEPPRP
  shrunken log2 fold change: -0.00172

## RRIRTRPPRLPRPRPRPKGSPRP
  shrunken log2 fold change: -0.0414

## RRIRTRPPRLPRPRPRPKHFPRP
  shrunken log2 fold change: -0.0888

## RRIRTRPPRLPRPRPRPKHHPRP
  shrunken log2 fold change: -0.263

## RRIRTRPPRLPRPRPRPKHLPRP
  shrunken log2 fold change: -0.233

## RRIRTRPPRLPRPRPRPKHPPRP
  shrunken log2 fold change: -0.317

## RRIRTRPPRLPRPRPRPKIEPRP
  shrunken log2 fold change: -0.00653

## RRIRTRPPRLPRPRPRPKILPRP
  shrunken log2 fold change: -0.0614

## RRIRTRPPRLPRPRPRPKIYPRP
  shrunken log2 fold change: -0.191

## RRIRTRPPRLPRPRPRPKLHPRP
  shrunken log2 fold change: -0.101

## RRIRTRPPRLPRPRPRPKLSPRP
  shrunken log2 fold change: 0.197

## RRIRTRPPRLPRPRPRPKMLPRP
  shrunken log2 fold change: -0.204

## RRIRTRPPRLPRPRPRPKMMPRP
  shrunken log2 fold change: 0.332

## RRIRTRPPRLPRPRPRPKMQPRP
  shrunken log2 fold change: 0.384

## RRIRTRPPRLPRPRPRPKQEPRP
  shrunken log2 fold change: -0.0429
